We go through one protein from PMC3268748, “A novel cold-active β-D-galactosidase from the Paracoccus sp. 32d - gene cloning, purification and characterization” (Microbial Cell Factories, 2011).

As a reminder, the Km is the concentration of substrate that gives half-maximal velocity. What is called kcat is the maximal rate divided by the concentration of active sites. As usually defined, the kcat/Km is the second-order rate constant that governs catalysis at low substrate concentration.

Substrate in this data set: O=[N+]([O-])c1ccccc1O[C@@H]1O[C@H](CO)[C@H](O)[C@H](O)[C@H]1O
The experiment in a line: purified protein. The format is biochemical, Paracoccus sp. 32d. Particulars: 20 °C, 20 mM sodium phosphate pH 7.3, apparent Km, also measured at 10 and 30 °C.

B1: BgaL; Paracoccus sp. 32d β-D-galactosidase (Paracoccus sp. 32d) (protein)
chain: MRVTQKLNHGWIFAEGAADPATPLAGETVTLPHNAVDLPLSYFDETSYQRAFTYQRVIAWDDAWQGRRVQLRFDGAMADNVVWVNGVQVVAHPDGYTPFVADLTDHLRPGDNLVTVRIDGSENPAIPPFGAQIDYLTYAGIYRDVWLMVLPERHLTNARILTPDALSDAKTVVIRPEVTAPGPVRARLLDGDREIAATEGEGELTLAGLTGLSLWSTDNPQLYTVELTLPDSGDVTTHRFGFRTAEWTPQGFLLNGQPMKLRGLNRHQSWAHQGYAAGRHAQERDAEIVRHDLCCNMVRTSHYPQSTWFLDRCDEIGLLVFEEIPGWQHIGDQAWQDRSVDNVRAMITRDWNHPSIVIWGVRINESPDNHDFYVRTNALARELDPTRAIGGVRCITDSEMLEDVYTMNDFILDESELPLINRPRTALRPTEEVTGIKKPVPYLVTEYNGHMFPTKAQDPELRQMEHVIRHLEVLNAAHGDPAISGCIGWCMFDYNTHKDFGAGDRICHHGVMDIWREPKFAAHAYGSQKPPSEGIVMEPVTFWARGERNIGGVLPLIVLTNCDEVEFECAGVTRRVGPDRERFPHLPRPPVIIDHRHISAEELGQWGMSWHPGRITGWLNGEQVALREYVADPLPTTLQIAPDRDTLPADGDIDLRVMLRALDQVGNRLPFLDAGIAVTVDGPARLIGPDLRMLQGGTTGMLLRLTGDAGTIRITARHPQFPEAVATVTVG
notes: E. coli LMG194, pBAD/Myc-His A with native stop codon (no tag), ion exchange purified; homodimer 161 kDa; GH2
With B1, the Michaelis constant (Km) is 1.18 ± 0.06 mM, the kcat was determined as 138 ± 2.19 s⁻¹ and the kcat/Km came out at 117000 M⁻¹ s⁻¹.
